System: MS2 coat protein
Test: apparent KD of MS2 coat protein; designed switch direction (-1 OFF switch, 1 ON switch): 1; higher = weaker reporter binding
Procedure, shortened: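 RNA switches sharing common flanks were transcribed by stalled E. coli RNA polymerase on Illumina chips. A doubling series of SNAP-549-labelled MS2 coat protein, from 0.7 or 1.5 nM to 3 µM, was applied in Tris-HCl pH 7.5 buffer with KCl, MgCl2, BSA, DTT, tRNA and Tween-20. Each step lasted 0.8–1.5 h at the bottom of the series and 10–20 min at the top. Normalised cluster fluorescence was curve-fitted, giving apparent KD as the per-design median over clusters.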

[1] = input ligand: microRNA oligo, concentration not stated
[2] = Eterna round: R95, input ligand: FMN 200 uM
[3] = Eterna round: R95, input ligand: microRNA oligo, concentration not stated
[4] = Eterna round: R95, input ligand: none

Row | Sequence | apparent KD of MS2 coat protein (input ligand: FMN 200 uM) [nM] | apparent KD of MS2 coat protein [1] [nM] | apparent KD of MS2 coat protein (input ligand: none) [nM] | apparent KD of MS2 coat protein [2] [nM] | apparent KD of MS2 coat protein [3] [nM] | apparent KD of MS2 coat protein [4] [nM]
1 | AAUUAAGAUUGAGGAUAUCACGUCGUUUAGACGUGAGAAGGCGAUCAUAACAUGAGGAUCACCCAUGUAUUACAUGAAUUAAUU [SSNG1/5-B3] (Eterna round: R96, puzzle: Same State NG 1) | 17.8 | 20 | 34 | – | – | –
2 | AGAUGUUAAUCAGGAUAUGGGCACAUGAGGAUCACCCAUGUAAAGUAGAUACUAUGUGGUCAAGUCUAGAAGGGAUGGCUAACA [SameState NG2 #80] (Eterna round: R96, puzzle: Same State NG 2) | 433 | 282 | 279 | – | – | –
3 | GGGCCAGCCUGUGCUGGGCCUUCGCAUGCACAUGAGGAUCACCCAUGUCGUGUACAUGCUUUUUGCUCGUCUUUAAA [Photon Torp-10] (puzzle: Sensor for hsa-mir-208a) | – | – | – | 40.9 | 12.6 | 42.7
4 | CAUCGUUUGAUAGGAUAUCGCUAUACAUGAGGAUCACCCAUGUUUACCACGCUGGUUUUUCAUACCGAGAAGGAUUCUGAUGAU [salish99_SSNG02_r04_013] (Eterna round: R96, puzzle: Same State NG 2) | 29.6 | 27.8 | 32.5 | – | – | –
5 | AUAAGUUUGAUGCUCGUCUCUCCGUACAAACAUGAGGAUCACCCAUGUGGUCGGGAAGUAGCCCAGCCAGUAUGGCC [Anriquradi] (puzzle: Sensor for hsa-mir-208a) | – | – | – | 15.3 | 19.9 | 17.1
6 | AAUUGUUCCUGAGGAUAUCAGUAGUUUGCUCUUUGAGAAGGCAGUACAUGAGGAUCACCCAUGUUGUGGUUUGAUAGAAUGAUA [JR_SSNG1_Sub006] (Eterna round: R96, puzzle: Same State NG 1) | 131 | 103 | 137 | – | – | –
7 | GUAUAACAUGAGGAUCACCCAUGUCAACAAAGUCGAGGAUAUGGGCAAUUAUAAUUAGAACCAGAAGGCGAAUAGU [Mat - Same State 1 - Mod of UCT - D43] (puzzle: Same State 1) | – | – | – | 30.8 | 287 | 251
8 | AGGGAGGAAGCUGAGGAUAUCGUAAGGAGGACAUGAGGAUCACCCAUGUGUGUGGAAUUGGAGGACGAGAAGGCAGAGGAGUGGG [JR_SS2_Sub054] (puzzle: Same State 2) | – | – | – | 32.9 | 27.1 | 28.9
9 | GUGGUCUGACAUGAGGAUCACCCAUGUGGAAUAAAUACGGGUUAGGAUAUCUUGAGGAUCACCCAAGAGAAGGGAUGGACCGUU (Eterna round: R96, puzzle: Same State NG 3) | 36.3 | 30.9 | 47.5 | – | – | –
10 | UUAAUAAUGAUAGGAUAUACAUGAGGAAUUCUCGUAGAAGGAUCAUGACAUGAGGAUCACCCAUGUAACGCUCAGAAGAGCGUA [Mat - Same State NG 1 - JL mod - D37] (Eterna round: R96, puzzle: Same State NG 1) | 493 | 184 | 730 | – | – | –
11 | UCGGGCUCUGCUCGUCUUGAGUUGCUCCCACAUGAGGAUCACCCAUGUAGUGUGCCGAUCGGCGCGCGGGUGACUUU [Atresoso] (puzzle: Sensor for hsa-mir-208a) | – | – | – | 456 | 151 | 451
12 | AAAGAACAUGAGGAUCACCCAUGUGGAAGAGGCACAGGAUAUCACCUCGCAAGUACGAGGUGAGAAGGGUGAUGAU [Araa] (puzzle: Same State 1) | – | – | – | 183 | 154 | 426
13 | AUAAAACAUGAGGAUCACCCAUGUCAACAAAGUCGAGGAUAUGGGUAAAUAAAAUAAGAACCAGAAGGCGAAUAAU [salish99_ss1_r3_028] (Eterna round: R96, puzzle: Same State 1) | 122 | 713 | 941 | – | – | –
14 | UGUUAACAUGAGGAUCACCCAUGUCAAAUGAAUCGAGGAUAUGGGAAGUAAGAAGAGAAACUAGAAGGCGAAGUUG [Altered State 1-3 - Jieux - Same State 1] (puzzle: Same State 1) | – | – | – | 97.2 | 72.9 | 226
15 | AACAAUCUAUCUGAGGAUAUCAUGAAAUAAACAUGAGGAUCACCCAUGUGCAGGAAAACUGCAUAUGAGAAGGCAGUUAGAUUGA [salish99_ss2_r3_053] (puzzle: Same State 2) | – | – | – | 45.5 | 612 | 568
16 | GCUAGGAUAUGACGAGGAUCACCCGUUAGAAGGAGCGAAAGCUAGGAUAUGACGAGGAUCACCCGUUAGAAGGAGCUGUCCUCU [pwkr ssNG3 DX 2xF5 +2xFMN.11] (Eterna round: R96, puzzle: Same State NG 3) | 200 | 80.1 | 111 | – | – | –

Row | Sequence | apparent KD of MS2 coat protein (input ligand: FMN 200 uM) [nM] | apparent KD of MS2 coat protein [1] [nM] | apparent KD of MS2 coat protein (input ligand: none) [nM] | apparent KD of MS2 coat protein [2] [nM] | apparent KD of MS2 coat protein [3] [nM] | apparent KD of MS2 coat protein [4] [nM]
17 | AGCUAUCGAAAACGAUAGCAGAAGCAUGUACAUGAGGAUCACCCAUGUCAUGUACAAGCUUUUUGCUCGUCUUAAAA [Zipper 23 - 1] (puzzle: Sensor for hsa-mir-208a) | – | – | – | 360 | 17.8 | 703
18 | GUUACAUGAGGAUCACCCAUGUAUGUGUGGGAGUAAGUGUCUUAGGAUAUCUAUCAGUUAAUUUAAGAGAAGGAAGAUUGUUGU [JMF's solution 90] (Eterna round: R96, puzzle: Same State NG 3) | 126 | 111 | 115 | – | – | –
19 | AGUCCGGCCUGAGCUGGACUGAAGCAUGUACAUGAGGAUCACCCAUGUUCAUGUGCAGGCUUUUUGCUCGUCUUGUG [JL-shm-2.04 JL mod] (puzzle: Sensor for hsa-mir-208a) | – | – | – | 97.7 | 13.4 | 124
20 | UUGUUUCACGUAGGAUAUCGACCUACAUGAGGAUCACCCAUGUUUUUGAAUAGAUUUUUUUGUUACGAGAAGGACGUUAUGUAU [JR_SSNG2_Sub065] (Eterna round: R96, puzzle: Same State NG 2) | 59.3 | 104 | 168 | – | – | –
21 | GGUCCAGCCUGAGCUGGACAAAAGCGUGUACAUGAGGAUCACCCAUGUCAUGUACAAGCUUUUUGCUCGUCUUAAAA [JL mod - D87 - 6] (puzzle: Sensor for hsa-mir-208a) | – | – | – | 80.2 | 18.8 | 94.9
22 | AAUUAUUAACAUGAGGAUCACCCAUGUGUUUUUUGCUCGUCAUGUAUUAUUAUUAUUAUUAUUAUUAUUAUUAUUAA [my second RNA] (puzzle: Sensor for hsa-mir-208a version 2) | – | – | – | 41.9 | 18.8 | 52.4
23 | UUGAAGAAUUAAGGAUAUUGAUUACAUAUGUUAAACAUGAGGAUCACCCAUGUGGGUUGCGGUAUCGAGAAGGUAAAUUAAAAG [Mat - same State NG 2 - JL mod - D78] (Eterna round: R96, puzzle: Same State NG 2) | 171 | 123 | 146 | – | – | –
24 | AUUAAACAUGAGGAUCACCCAUGUCAACAAAGUCGAGGAUAUGGGCAUAUUAUCUUAUUACCAGAAGGCGAAUAAU [salish99_ss1_r3_087] (puzzle: Same State 1) | – | – | – | – | 326 | –
25 | AGGUAACAUGAGGAUCACCCAUGUACCAAUAAUGCAGGAUAUCGACACGAAAAUACGUGUCGAGAAGGGCAUGAAA [SS1 MT 22] (Eterna round: R96, puzzle: Same State 1) | 10.3 | 9.09 | 12.5 | – | – | –
26 | UUAUUAUACGUAGGAUAUUGAUGAUUGAUAGUACAAGAAGGACGAACAUGAGGAUCACCCAUGUAUAUUAAAAUGAGUUUGAAU [JR_SSNG1_Sub077] (Eterna round: R96, puzzle: Same State NG 1) | 72.8 | 52.8 | 55.1 | – | – | –
27 | GCUGCAUGGGCAGGAUAUGGGUUCAGAGCGGAAGUGCGCUUUGAUACAUGAGGAUCACCCAUGUCCCAGAAGGGCCCAAGCGGC [Laleinza] (Eterna round: R96, puzzle: Same State NG 2) | 18.4 | 53.7 | 97.3 | – | – | –
28 | GGAGAGAGAGCGCAGGAUAUUUGAGGAGAAACAUGAGGAUCACCCAUGUGAGAGAGAGAGGAGAAAGAGAAGGGUGAGAGAGAGG [Altered State 2-15 - Jieux - Same State 2] (puzzle: Same State 2) | – | – | – | 41.9 | 52.9 | 57.8
29 | AUACUCAUGUAAGGAUAUGCAGCCGAAACGGCUGCAGAAGGUACUAUAAUACAUGAGGAUCACCCAUGUCAAAAUAAAAUAGUU [Mat - Same State NG 1 - JL mod - D100] (Eterna round: R96, puzzle: Same State NG 1) | 20.6 | 25.4 | 25 | – | – | –
30 | CUGUAUCGCGGAGGAUAUGGGCUGAGACCAGGGCAACCCUGGUCAACAUGAGGAUCACCCAUGUCCCAGAAGGCCGCAAUGCUA [Esatanla] (Eterna round: R96, puzzle: Same State NG 2) | 34.7 | 128 | 137 | – | – | –
31 | ACUUGCUUUUUGCUCGUAUAUUGUCCAUUACAUGAGGAUCACCCAUGUGUGUAUUGUGUAUUGUUUUUGAUACGUGC [JR_SHM208A_Sub071] (puzzle: Sensor for hsa-mir-208a) | – | – | – | 243 | 24.4 | 302

Source: the supplement of paper PMC9170038
